According to IntAct's records for PubMed 31515488:

B1: Coiled-coil domain-containing protein 172 (Homo sapiens), P0C7W6 (parent)
chain: MSLESLFQHIIFTEHQAEESRRLMREVRSEITRCREKIKKATEELNEEKIKLESKVQQFFEKSFFLQLLKAHENALEKQYSEITNHRNMLLQTFEAIKKQMIEEEDKFIKEITDFNNDYEITKKRELLMKENVKIEISDLENQANMLKSEMKSMEHDSSQLNELQKQKSELIQELFTLQRKLKVFEDEENESICTTKYLEAEKIKISEKPQNDTECLRLKKELELYKEDDMESVYEALQTEIEFLELTLAQKDLQESK
B2: Ras-related protein Rab-4A (Homo sapiens), P20338 (parent)
chain: MSQTAMSETYDFLFKFLVIGNAGTGKSCLLHQFIEKKFKDDSNHTIGVEFGSKIINVGGKYVKLQIWDTAGQERFRSVTRSYYRGAAGALLVYDITSRETYNALTNWLTDARMLASQNIVIILCGNKKDLDADREVTFLEASRFAQENELMFLETSALTGENVEEAFVQCARKILNKIESGELDPERMGSGIQYGDAALRQLRSPRRAQAPNAQECGC
partner: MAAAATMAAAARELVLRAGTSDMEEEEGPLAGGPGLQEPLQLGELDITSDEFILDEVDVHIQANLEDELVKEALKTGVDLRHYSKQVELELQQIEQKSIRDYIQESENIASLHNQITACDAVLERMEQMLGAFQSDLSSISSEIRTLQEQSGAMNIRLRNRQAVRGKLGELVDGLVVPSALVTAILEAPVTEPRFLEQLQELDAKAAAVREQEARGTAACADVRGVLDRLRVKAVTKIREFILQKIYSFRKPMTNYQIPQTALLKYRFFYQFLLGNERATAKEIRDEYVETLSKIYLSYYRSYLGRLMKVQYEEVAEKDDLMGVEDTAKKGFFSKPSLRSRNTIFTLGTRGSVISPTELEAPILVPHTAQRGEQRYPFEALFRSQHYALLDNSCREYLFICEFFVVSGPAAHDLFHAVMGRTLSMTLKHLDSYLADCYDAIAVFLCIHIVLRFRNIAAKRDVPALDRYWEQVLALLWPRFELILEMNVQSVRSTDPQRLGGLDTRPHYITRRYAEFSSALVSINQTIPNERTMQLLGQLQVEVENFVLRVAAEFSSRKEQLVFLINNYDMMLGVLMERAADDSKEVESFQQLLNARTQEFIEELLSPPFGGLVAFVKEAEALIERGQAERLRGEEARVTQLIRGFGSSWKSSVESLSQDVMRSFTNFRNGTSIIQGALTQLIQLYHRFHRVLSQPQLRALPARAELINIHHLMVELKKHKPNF
B3: UBX domain-containing protein 6 (Homo sapiens), Q9BZV1 (parent)
chain: MKKFFQEFKADIKFKSAGPGQKLKESVGEKAHKEKPNQPAPRPPRQGPTNEAQMAAAAALARLEQKQSRAWGPTSQDTIRNQVRKELQAEATVSGSPEAPGTNVVSEPREEGSAHLAVPGVYFTCPLTGATLRKDQRDACIKEAILLHFSTDPVAASIMKIYTFNKDQDRVKLGVDTIAKYLDNIHLHPEEEKYRKIKLQNKVFQERINCLEGTHEFFEAIGFQKVLLPAQDQEDPEEFYVLSETTLAQPQSLERHKEQLLAAEPVRAKLDRQRRVFQPSPLASQFELPGDFFNLTAEEIKREQRLRSEAVERLSVLRTKAMREKEEQRGLRKYNYTLLRVRLPDGCLLQGTFYARERLGAVYGFVREALQSDWLPFELLASGGQKLSEDENLALNECGLVPSALLTFSWDMAVLEDIKAAGAEPDSILKPELLSAIEKLL
partner: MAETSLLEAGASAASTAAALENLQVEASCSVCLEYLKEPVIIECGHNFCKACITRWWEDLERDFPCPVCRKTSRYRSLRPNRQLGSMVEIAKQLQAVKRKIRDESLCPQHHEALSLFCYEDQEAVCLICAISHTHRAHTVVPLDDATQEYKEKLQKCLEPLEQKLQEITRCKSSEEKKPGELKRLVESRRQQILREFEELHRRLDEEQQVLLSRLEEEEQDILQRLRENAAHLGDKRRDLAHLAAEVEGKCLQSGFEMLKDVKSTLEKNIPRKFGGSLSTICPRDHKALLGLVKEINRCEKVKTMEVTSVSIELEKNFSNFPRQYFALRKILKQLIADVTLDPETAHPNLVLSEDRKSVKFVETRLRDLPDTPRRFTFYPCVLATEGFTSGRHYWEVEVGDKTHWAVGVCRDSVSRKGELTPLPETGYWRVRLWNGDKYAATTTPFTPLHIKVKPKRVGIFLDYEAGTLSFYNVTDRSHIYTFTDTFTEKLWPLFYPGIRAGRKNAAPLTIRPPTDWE
B4: Ras-related protein Rab-39B (Homo sapiens), Q96DA2 (parent)
chain: MEAIWLYQFRLIVIGDSTVGKSCLIRRFTEGRFAQVSDPTVGVDFFSRLVEIEPGKRIKLQIWDTAGQERFRSITRAYYRNSVGGLLLFDITNRRSFQNVHEWLEETKVHVQPYQIVFVLVGHKCDLDTQRQVTRHEAEKLAAAYGMKYIETSARDAINVEKAFTDLTRDIYELVKRGEITIQEGWEGVKSGFVPNVVHSSEEVVKSERRCLC
partner: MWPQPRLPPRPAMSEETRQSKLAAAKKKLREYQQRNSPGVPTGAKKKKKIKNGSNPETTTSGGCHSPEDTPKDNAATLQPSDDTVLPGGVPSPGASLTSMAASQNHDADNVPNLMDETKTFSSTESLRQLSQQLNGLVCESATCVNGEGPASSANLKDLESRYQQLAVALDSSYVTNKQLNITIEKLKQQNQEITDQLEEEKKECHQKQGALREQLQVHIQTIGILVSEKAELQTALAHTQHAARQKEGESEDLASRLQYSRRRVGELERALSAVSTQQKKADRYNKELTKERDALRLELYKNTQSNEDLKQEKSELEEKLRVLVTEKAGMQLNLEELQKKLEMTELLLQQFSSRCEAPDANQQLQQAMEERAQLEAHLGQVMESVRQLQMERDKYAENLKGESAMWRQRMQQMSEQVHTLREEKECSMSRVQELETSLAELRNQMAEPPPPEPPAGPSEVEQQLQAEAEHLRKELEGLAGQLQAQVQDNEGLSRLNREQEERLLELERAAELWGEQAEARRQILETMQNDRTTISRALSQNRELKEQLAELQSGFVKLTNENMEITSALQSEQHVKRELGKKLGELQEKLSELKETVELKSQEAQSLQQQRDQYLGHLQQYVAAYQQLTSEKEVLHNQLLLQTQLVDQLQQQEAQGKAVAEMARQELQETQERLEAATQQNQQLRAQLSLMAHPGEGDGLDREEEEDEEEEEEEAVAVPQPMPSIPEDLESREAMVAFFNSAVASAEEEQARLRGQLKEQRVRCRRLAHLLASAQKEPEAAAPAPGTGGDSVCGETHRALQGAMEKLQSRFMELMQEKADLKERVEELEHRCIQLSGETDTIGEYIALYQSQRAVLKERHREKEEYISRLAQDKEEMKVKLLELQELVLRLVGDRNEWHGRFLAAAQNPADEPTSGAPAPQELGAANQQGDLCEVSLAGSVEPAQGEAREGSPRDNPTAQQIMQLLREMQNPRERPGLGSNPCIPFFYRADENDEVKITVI
B5: Translocator protein (Homo sapiens), P30536 (parent)
chain: MAPPWVPAMGFTLAPSLGCFVGSRFVHGEGLRWYAGLQKPSWHPPHWVLGPVWGTLYSAMGYGSYLVWKELGGFTEKAVVPLGLYTGQLALNWAWPPIFFGARQMGWALVDLLLVSGAAAATTVAWYQVSPLAARLLYPYLAWLAFTTTLNYCVWRDNHGWRGGRRLPE
partner: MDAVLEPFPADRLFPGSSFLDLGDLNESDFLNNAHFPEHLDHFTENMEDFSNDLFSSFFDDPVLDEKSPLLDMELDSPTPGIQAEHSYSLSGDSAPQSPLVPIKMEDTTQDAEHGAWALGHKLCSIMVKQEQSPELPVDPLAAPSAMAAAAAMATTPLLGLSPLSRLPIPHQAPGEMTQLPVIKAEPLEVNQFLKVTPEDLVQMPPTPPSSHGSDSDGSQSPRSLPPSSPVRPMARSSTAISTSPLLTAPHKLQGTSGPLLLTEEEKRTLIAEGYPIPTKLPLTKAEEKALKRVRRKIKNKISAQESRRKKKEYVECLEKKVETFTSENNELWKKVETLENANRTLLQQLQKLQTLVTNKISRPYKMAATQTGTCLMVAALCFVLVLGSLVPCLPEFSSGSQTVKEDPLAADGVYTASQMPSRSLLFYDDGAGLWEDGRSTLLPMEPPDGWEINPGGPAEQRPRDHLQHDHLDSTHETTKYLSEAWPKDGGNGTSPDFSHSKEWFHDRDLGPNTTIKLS

Variants of: B1
Conditions: with fa13c_human FAM13C
For I10V, the “effect of a mutation on the interaction” value was “with no effect”. F60L was tested, and the “effect of a mutation on the interaction” value was “disrupting interaction strength”.

Variants of: B1
Conditions: with dctn2_human DCTN2, Q13561
dctn2_human DCTN2, Q13561, sequence (Q13561 whole entry): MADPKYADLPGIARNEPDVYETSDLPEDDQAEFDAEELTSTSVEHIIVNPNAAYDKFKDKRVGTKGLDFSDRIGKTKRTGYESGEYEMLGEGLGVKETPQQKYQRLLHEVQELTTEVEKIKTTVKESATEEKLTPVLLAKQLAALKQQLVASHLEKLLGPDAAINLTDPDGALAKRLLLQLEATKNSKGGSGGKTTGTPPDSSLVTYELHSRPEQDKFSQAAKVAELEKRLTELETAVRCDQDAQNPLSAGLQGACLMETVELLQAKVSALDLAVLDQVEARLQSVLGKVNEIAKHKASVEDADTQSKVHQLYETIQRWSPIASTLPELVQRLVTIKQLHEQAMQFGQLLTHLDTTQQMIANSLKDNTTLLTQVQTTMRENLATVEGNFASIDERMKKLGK
With I10V the “effect of a mutation on the interaction” value was “with no effect”. F60L was tested, and the “effect of a mutation on the interaction” value was “disrupting interaction strength”.

Variants of: B1
Conditions: with smce1_human SMARCE1, Q969G3
smce1_human SMARCE1, Q969G3, sequence (Q969G3 whole entry): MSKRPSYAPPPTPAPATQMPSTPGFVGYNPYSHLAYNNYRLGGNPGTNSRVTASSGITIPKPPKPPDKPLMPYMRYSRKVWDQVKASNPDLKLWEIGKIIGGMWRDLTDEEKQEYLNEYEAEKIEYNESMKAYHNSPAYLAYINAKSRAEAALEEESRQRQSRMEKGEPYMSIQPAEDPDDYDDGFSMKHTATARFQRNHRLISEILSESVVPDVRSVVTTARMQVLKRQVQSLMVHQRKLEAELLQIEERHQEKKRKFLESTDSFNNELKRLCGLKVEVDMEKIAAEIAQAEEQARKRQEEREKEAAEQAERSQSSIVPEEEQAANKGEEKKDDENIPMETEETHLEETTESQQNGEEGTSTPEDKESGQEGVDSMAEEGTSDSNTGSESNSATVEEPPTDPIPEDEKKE
In the case of I10V, the “effect of a mutation on the interaction” value is reported as “with no effect”. With F60L the “effect of a mutation on the interaction” value was “disrupting interaction strength”.

Variants of: B1
Conditions: with mesh1_human HDDC3, Q8N4P3
mesh1_human HDDC3, Q8N4P3, sequence (Q8N4P3 whole entry): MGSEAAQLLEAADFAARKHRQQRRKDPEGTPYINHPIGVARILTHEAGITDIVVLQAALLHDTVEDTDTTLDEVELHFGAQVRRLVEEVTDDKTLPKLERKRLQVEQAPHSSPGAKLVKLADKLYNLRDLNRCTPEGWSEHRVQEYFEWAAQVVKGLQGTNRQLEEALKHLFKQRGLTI
With I10V the “effect of a mutation on the interaction” value was “with no effect”. N145K was tested, and the “effect of a mutation on the interaction” value was “with no effect”.

Variants of: B2
Conditions: with vps52_human VPS52, Q8N1B4
In the case of R207H, the “effect of a mutation on the interaction” value is reported as “with no effect”.

Variants of: B3
Conditions: with tri39_human TRIM39, Q9HCM9
A361V was tested, and the “effect of a mutation on the interaction” value was “with no effect”.

Variants of: B4
Conditions: with goga2_human GOLGA2, Q08379
In the case of R177S, the “effect of a mutation on the interaction” value is reported as “with no effect”.

Variants of: B5
Conditions: with cr3l1_human CREB3L1, Q96BA8
A119V was tested, and the “effect of a mutation on the interaction” value was “disrupting interaction strength”.
